Positions count from the first letter of the chain named.

This note sets out measurements from US20240218057A1 (ROCKEFELLER UNIVERSITY, published 2024).

For the test, the target named is T1, SARS-COV-2 RBD (SARS-COV-2, UniProt P0DTC2 319-539).
T1 construct: also called WT RBD
Put plainly: ELISA, RBD coated on plate.

B1: C913 (antibody, V domains shown)
VH: EVQLVESGGVVVQPGGSLRLSCAASGFTFDDYSMHWVRQVPGKGLEWIAVIFWDGTSTYYADSVKGRFTISRDNSKKSLYLQMNSLRSEDTALYYCAKDSEDCSSTSCYVDHWGQGTLVTVSS
VL: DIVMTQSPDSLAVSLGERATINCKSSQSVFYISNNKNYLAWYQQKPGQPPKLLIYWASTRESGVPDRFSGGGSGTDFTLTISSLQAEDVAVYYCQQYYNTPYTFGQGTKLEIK
Regarding B1, the EC50 was determined as 2.58 ng/mL.

B2: C924 (antibody, V domains shown)
VH: QVQLVESGGGVVQPGRSLRLSCAASGFTFSSYGMHWVRQAPGKGLEWVAVISDDGSNKYYADSVKGRFTISRDNSKNTLYLQMNSLRAEDTAVYYCAKSWWLSENWFDPWGQGTLVTVSS
VL: EIVMTQSPATLSVSPGERATLSCRASQSVSSNLAWYQQKPGQAPRLLIYGASTRATGIPARFSGTGSGTEFTLTISSLQSEDFAVYYCQQYNNWPLTFGGGTKVEIK
As for B2, it took 2.5 ng/mL to reach a half-maximal effect (EC50).

B3: C925 (antibody, V domains shown)
VH: B2 VH with S31N, M34L, I51T, S56N, N57R, N74D, S85N, A88T
VL: B2 VL with S30R, K39R, S52F, G64V, T65S, S76D
Turning to B3, the EC50 stood at 2.26 ng/mL.

B4: C918 (antibody, V domains shown)
VH: QVQLVESGGGLVKPGGSLRLSCTASGFTFSDYYMTWLRQAPGKGLEWVSYISSTSPYTSYADSVKGRFTISRDNARNSVYLQMNSLRAEDTAIYYCARVPPPQRLHPFDVWGQGTMVTVSS
VL: DIQMTQSPSTLSASVGDRVTITCRASQSISSWLAWYQQKPGKAPKLLIYQASSLESGVPSRFSGSGSGTDFTLTISSLQPDDFATYYCQQYFRYSWTFGQGTKVEI
For B4, the EC50 was found to be 1.78 ng/mL.

B5: C922 (antibody, V domains shown)
VH: QVQLVESGGGLVKPGGSLRLSCAGSGFTFTDYYMAWIRQAPGKGLEWVSYISTSDRFINYADSVKGRFTISRDDAKNSLYLQMNSLRAEDTAVYYCARDGGGYDRFDHWGQGTLVTVSS
VL: DIQMTQSPSSLSASVGDRVTITCQASQDISNLLNWYQQKAGKAPKLLIYDASNLETGVPSRFSGSGSGTDFTFTISSLQPEDIATYYCLQYDNLPLTFGQGTKLEIK
With B5, the EC50 was 2.42 ng/mL.

B6: C923 (antibody, V domains shown)
VH: QVQLVESGGGLVKPGGSLRLSCAASGFTFSDYHMTWIRQAPGKGLEWVSYISNRSTYRNYADSVKGRFTISRDNAKNSLYLQMNSLRAEDTAVYYCARDGGAYDRFDYWGQGTLVTVSS
VL: B5 VL with S30K, N31K, L32F, A40P, F71L, L89Q
In the case of B6, the midpoint of the response, the EC50, lay at 1.95 ng/mL.

B7: C916 (antibody, V domains shown)
VH: EVQLVESGGGLVQPGGSLRLSCAASGFTFSNYDMHWVRQATGRGLEWVSTIGTAGDTYYPGSVKGRFTISRENAKNSLYLQMNSLRAGDTALYYCARVRYDSSGYFWSLDYWGQGTLVTVSS
VL: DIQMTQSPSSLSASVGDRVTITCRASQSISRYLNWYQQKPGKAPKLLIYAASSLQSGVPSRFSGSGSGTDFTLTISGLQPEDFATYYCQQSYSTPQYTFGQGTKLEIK
The molecule B7 returned an EC50 of 1.97 ng/mL.

B8: C917 (antibody, V domains shown)
VH: B7 VH with R43K, E46D, L92V, Y100F, S102T
VL: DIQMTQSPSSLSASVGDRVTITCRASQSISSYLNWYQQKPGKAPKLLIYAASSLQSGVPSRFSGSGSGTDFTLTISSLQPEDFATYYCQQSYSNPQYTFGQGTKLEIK
In turn, B8 came in with an EC50 of 1.05 ng/mL.

B9: C932 (antibody, V domains shown)
VH: QVQLVESGGSVVQPGKSLRLSCAGSGFAFSTYGMHWVRQAPGKGLEWVAVISSDGGNKYYADSVKGRFTISRDNYENTLYLQMNSLGAEDTAVYYCAKVALRGVFISLYYGMDVWGQGTTVTVSS
VL: SYELTQPPSVSVTPGQTASITCSGDKLGDKYACWFLQKPGQSPLLVIYQDTKRPSGIPDRLSGSKSGNTATLTISGTQAMDEADYYCQTWDSSAVVFGGGTKLTV
In the case of B9, the EC50 stood at 3.57 ng/mL.

B10: C931 (antibody, V domains shown)
VH: QVQLVESGGGVVQPGRSLRLSCAASGFSFSTYGMHWVRQAPGKGLEWVAVISFDGSQKYYGDSVKGRFTISRDNPKNTLDLQMNSLRAEDTAVYYCAKVVVRGVIISLYYGMDVWGQGTTVTVSS
VL: not shown
Consider B10, for which the EC50 was 2.57 ng/mL.

B11: C938 (antibody, V domains shown)
VH: QVQLVESGGGVVQPGRSLRLSCAASGFTFRSHAMHWVRQAPGKGLEWVAIISSDGFNKYYADSVKGRFTISRDNSKNTLYVHMNSLRVEDTAIYYCASGLLWFETREISGAPDYGMAVWGQGATVTVSS
VL: DIQMTQSPSSLSASVGDRVTITCRASQNISNFLNWYQQKPGKAPKLLIYAASSLQSGVPSRYSGSGSGTDFTLTISSLQAEDFATYYCQQSYSTPLTFGGGTKVEIK
Turning to B11, the response was half-maximal at 2.63 ng/mL (EC50).

B12: C927 (antibody, V domains shown)
VH: QVQLVESGGGVVQPGRSLRLSCVASGFTFSYFDMHWVRQAPGKGLEWVALISHDGSTTFYGDSARGRFTISRDNSRNTLDLQMNSLRPEDTAVYFCAKPVDAAMFDFWGQGTLVTVS
VL: SYELTQPPSVSVAPGKTARITCGGNNIGSKSVHWYQQRPGQAPVLVIYYDSDRPSGIPERFSGSNSGNTATLTISRVEAGDEADFYCQVWDRSTNHLVVFGGGTQLTVL
The molecule B12 yielded a concentration for a half-maximal effect (EC50) of 3.77 ng/mL.

B13: C912 (antibody, V domains shown)
VH: QVQLVESGGGVVQPGRSLRLSCAASGFSFSTYTMHWVRQTPDKGLEWVAVISDDGKNKYYADSMKGRFTISRDNSKNTLYLQMSSLRPEDTAVYYCARDLENVMIEVALESWGQGTLVTVSS
VL: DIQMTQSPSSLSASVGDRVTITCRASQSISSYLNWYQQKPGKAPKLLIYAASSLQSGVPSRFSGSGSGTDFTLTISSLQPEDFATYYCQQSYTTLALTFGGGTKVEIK
The molecule B13 had an EC50 of 2.45 ng/mL.

B14: C914 (antibody, V domains shown)
VH: QVQLQESGPGLVKPSQTLSLTCTVSGGSITSGDYYWTWIRQPPGKGLEWIGYIYYSGNTYYNLSLRSRITISEDTSKNQFSLKLRSVTAADTAVYYCARAMITFGGVIVVLDYWGQGTLVTVSS
VL: QSALTQPPSASGSPGQSVTISCTGTSTDVGGYNFVSWYQQHPGKAPKLMIYEVSKRPSGVPDRFSGSKSGNTASLTVSGLQAEDEADYYCSSYAGSNILYVFGTGTKVTVL
Molecule B14 returned an EC50 of 1.59 ng/mL.

B15: C915 (antibody, V domains shown)
VH: QVQLQESGPGLVKPSQTLSLTCTVSGGSISSGDYYWSWIRQPPGKGLEWIGYIYYSDSTYYNPSLRTRVTISVDTSKNQFSLKLTSVTAADTAVYYCARAMITFGGVIVLYDYWGQGTLVTVSS
VL: B14 VL with T27S, F34Y, S54T, D62A, N97I, I98L
As for B15, the EC50 is 3.49 ng/mL.

B16: C939 (antibody, V domains shown)
VH: QVQLVESGGGVVQPGRSLRLSCAASGFTFSSYAMHWVRQAPGKGLESVALISHDGSNKYHADSVKGRLTISRDTSKNTLYLQMDSLRPEDTAVYYCASGLLWFETAGGSGAPDYGMAVWGQGTTVTVSS
VL: DIQMTQSPSSLSASVGDRVTITCRASQSISTYLNWYQQKPGRAPKFLIYAASSLQSGVPSRFSGSGSGTDFTLIISGLQPEDFATYFCQQSYNTPLTFGGGTKVEIK
B16 gave an EC50 of 3.62 ng/mL.

B17: C920 (antibody, V domains shown)
VH: QLQLQESGPGLVKPSETLSLTCAVSGGSISNSPFYWGWIRQPPGKGLECIGSIYYSGSTYYNPSLKSRVTISVDTSKKQFSLKLSSVTAADTAVYYCARHFADGSGRVVDSWGQGILVTVSS
VL: EIVLTQSPATLSLSPGERATLSCRASQSVSSYLAWYQQKPGQAPSLLIYDVSNRATGIPARFSGSGSGTDFTLTISSLEPEDFAVYYCQQRINWPLYTFGQGTKLEIK
On to B17, for which the EC50 was 2.35 ng/mL.

B18: C921 (antibody, V domains shown)
VH: B17 VH with G37A, S56T, K77T, S85R, S111Y, I116T
VL: B17 VL with S30T, S31T, S45R, N53S, I92S
As to B18, the response was half-maximal at 3.91 ng/mL (EC50).

B19: C935 (antibody, V domains shown)
VH: QVQLVESGGGVVQPGRSLRLSCAATGFTFSSYGMHWVRQAPGKGLEWVALIWYDGSNQYYVDSVKGRFTISRDNSKKTLYLQMNSLRVEDTAVYYCARDFSNSDMVTLSDAFDIWGQGTMVTVSS
VL: DIQLTQSPSFLSASVGDRVTIACRASQGISSYSSYLAWYQQKPGKAPKLLIYAASTLQSGVPSRFSGSGSGTEFTLTISSLQPEDFATYYCQQLNSYPLFTFGPGTKVDIK
Molecule B19 had an EC50 of 2.86 ng/mL.

B20: C929 (antibody, V domains shown)
VH: EVQLVESGGGLIQPGGSLRLSCAASGFTVSSNYMTWVRQAPGKGLEWVSVIYSGGTTYYADSVKGRFTISRDNSKNTLYLQMNSLRAEDTAVYYCARDLVVWGMDVWGQGTTVTVSS
VL: DIQLTQSPSFLSASVGDRVTITCRASQGISSYLAWYQQKPGKAPKLLIYAASTLQSGVPSRFSGSGSGTEFTLTISSLQPEDFATYYCQLLNSYPYTFGQGTKLEIK
With B20, the EC50 was determined as 2.07 ng/mL.

B21: C936 (antibody, V domains shown)
VH: B20 VH with T35S, T56S, Y58F, V100G, V101T, W102G, G103L, M104F, V106Y, T112L
VL: DIQLTQSPSFLSASVGDRVTITCRASQGISSYLAWYQQKPGKAPKLLIYAASTLQSGVPSRFSGSGSGTEFTLTISSLQPEDFATYYCQQLDSYPPGTFGPGTKVDIK
As to B21, the EC50 stood at 1.56 ng/mL.

B22: C937 (antibody, V domains shown)
VH: EVQLVESGGGLIQPGGSLRLSCAASELTVSSNYMSWVRQAPGKGLEWVSVIYPGGSTFYADSVKGRFTISRDNSKNTLYLQMNSLRAEDTAVYYCARDLGTGLFDYWGQGTLVTVSS
VL: B21 VL with Y87F, Q90L, D92N, Y94N
Regarding B22, it took 0.97 ng/mL to reach a half-maximal effect (EC50).

B23: C930 (antibody, V domains shown)
VH: B20 VH with I12F, S21A, F27I, T35S, A40P, S53A, T56S, Y58F, F67L, M82I
VL: B20 VL with L90Q, S93T
With B23, the EC50 was found to be 1.24 ng/mL.

B24: C926 (antibody, V domains shown)
VH: QVQLVESGGGVVQPGRSLRLSCAASGFGLITYSMHWVRQAPGKGLEWVGLISFDGNTTYYADSVRGRFTISRDNLANILYLQMNSLRPDDTALYYCARDKRGVIRGLLNFWGQGSLVTVSS
VL: DIVMTQSPDSLAVSLGERATINCKSSQSLLPSSNSNNYLAWYQQKSGQPPNLLIYWASTRESGVPDRFSGSGSETDFSLTISNLQAEDVAVYYCQQYYNTPHTFGGGTKVEI
In turn, B24 returned an EC50 of 4.72 ng/mL.

B25: C934 (antibody, V domains shown)
VH: QVQLVQSGAEVKKPGASVKVSCKASGYTFTDYYIHWVRQAPGQGLEWMGWINPNSGGTNYAQKFQGRVTMTRDTSISTAYMDLSRLRSDDTAVYYCARDVIITMGRGVVFRMDVWGQGTTVTVSS
VL: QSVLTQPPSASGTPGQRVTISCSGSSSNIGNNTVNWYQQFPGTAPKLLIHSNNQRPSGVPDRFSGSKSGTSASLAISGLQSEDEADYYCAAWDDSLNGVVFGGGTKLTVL
As for B25, the EC50 was found to be 0.95 ng/mL.

B26: C928 (antibody, V domains shown)
VH: QVQLVESGGGVVQPGRSLRLSCAASGFTFSFFDMHWVRQAPGKGLEWVADISYDGSNQYYGDSVKGRFTISRDNSKSTLYLQMNSLRAEDTAVYYCAKPVDTAMFDSWGQGTLVTVSS
VL: SYELTQPPSVSVAPGETARITCGGNNIGHKSVHWYQQQPGQAPVLVIYYDSERPSGIPERFSGSNSGNTATLTISRVEAGDEADYHCQVWDGGNDHLVIFGGGTKLTVL
Regarding B26, the EC50 amounted to 4.14 ng/mL.
